Test results taken from paper PMC8266076.

What was measured:
Test in all cases: fluorescence anisotropy
Details in all cases: fluorescein-12-UTP incorporated during transcription; 50 mM Tris pH 7.5, 40 mM KCl, 10 mM MgCl2, 1 mM DTT, 10 nM fluorescein-labeled RNA, 21 C
A3Hhap II (Homo sapiens) = system: A3Hhap II (Homo sapiens)
A3G (Homo sapiens) = system: A3G (Homo sapiens)
[1] = system: A3C-A3Hhap II (synthetic double domain chimera) (Homo sapiens (synthetic chimera))

## HIV-1 5'UTR RNA (nt 1-497)
A3Hhap II (Homo sapiens)
  Kd: 0.52 nM
A3G (Homo sapiens)
  Kd: 6.36 nM
[1]
  Kd: 0.03 nM
